# Results reported in publication PMC3062784 (Biochimica et Biophysica Acta, 2011).
# “And” between values parts separate entries of the source, which are not always exact repeats. Equal entries are not always repeated.
# How the values were obtained:
# native gel or EMSA = biological target: the molecule itself; assay: native gel or EMSA
# cross-linking = biological target: the molecule itself; assay: cross-linking
protein,measurement,setting,value
"C-terminally triple HA-tagged Pun1p expressed via the MET25 promoter from plasmid YEpM-PUN1-HA (natural protein, S. cerevisiae, UniProt Q06991 1-263, looked up) MRNFFTLFFAAIFSLGALILAIVACAGSTKNYSPINKIYCAELDLSQMKVSTVLPSLSSATLSSLGLPSYINIGLWSYCTVDSSHNIQSCSSPHGIQNFNLSSLVYDNINNNEALELMDSVASVVLPEKLKSKMTYYNNLVKCMFITILIGIVLTFVNLVFNVLRWIIHIRPLTWFGAFFSFFAFAALLVSIGSCLGTYSYIKYILKHNYSDYGISMSIGRNYQGLMWGAVVGALLNFILWCSVRSRPTVIYANAPIEEKPLI",stoichiometry N,native gel or EMSA,10 and 12 and 8
same,stoichiometry N,cross-linking,2 and 4 and 6
